Source: EP4624492A1 (Shanghai Hongcheng Biopharmaceutical Co., Ltd., dated 2025)
Numbering of substitutions follows the chain as printed.

B1: 563E10E12_mIgG2a (antibody)
heavy: EVQLIESGGGLVQPKGSLKLSCAASGFNFNAYAMNWVRQAPGKGLEWVARIRSKSNNFATYYADSVTDRFTISRDDSESMLYLQMNNLKTEDTAMYYCVRHGRRDLLYSMDFWGQGTSVTVSSAKTTAPSVYPLAPVCGDTTGSSVTLGCLVKGYFPEPVTLTWNSGSLSSGVHTFPAVLQSDLYTLSSSVTVTSSTWPSQSITCNVAHPASSTKVDKKIEPRGPTIKPCPPCKCPAPNLLGGPSVFIFPPKIKDVLMISLSPIVTCVVVDVSEDDPDVQISWFVNNVEVHTAQTQTHREDYNSTLRVVSALPIQHQDWMSGKEFKCKVNNKDLPAPIERTISKPKGSVRAPQVYVLPPPEEEMTKKQVTLTCMVTDFMPEDIYVEWTNNGKTELNYKNTEPVLDSDGSYFMYSKLRVEKKNWVERNSYSCSVVHEGLHNHHTTKSFSRTPGK
light: DVVMTQAAFSNPVTLGTSTSISCRSSKSLLHSNGITYLFWYLQKPGQSPQLLIYQMSNLASGVPDRFSGSGSGTDFTLRISRVEAEDVGVYYCAQSLELPLTFGGGTKLEIKRADAAPTVSIFPPSSEQLTSGGASVVCFLNNFYPKDINVKWKIDGSERQNGVLNSWTDQDSKDSTYSMSSTLTLTKDEYERHNSYTCEATHKTSTSPIVKSFNRNEC
notes: also called mIgG2a-subclass chimeric antibody 563E10E12
B2: 559E1B10_hIgG1 (antibody)
heavy: not shown
light: DIVMTQSPATLSVTPGDRVSLSCRASQSISDYLHWYQQKSHESPRLLLKYVSQSISGIPSRFSGSGSGSDFTLTINSVEPEDVGVYYCQNGHSFPLTFGAGTKLELKRTVAAPSVFIFPPSDEQLKSGTASVVCLLNNFYPREAKVQWKVDNALQSGNSQESVTEQDSKDSTYSLSSTLTLSKADYEKHKVYACEVTHQGLSSPVTKSFNRGEC
notes: also called hIgG1-subclass chimeric antibody 559E1B10
B3: 559E1B10_hzH2L1_hIgG1 (antibody)
heavy: not shown
light: EIVLTQSPATLSLSPGERATLSCRASQSISDYLHWYQQKPGQAPRLLLKYVSQSISGIPARFSGSGSGTDFTLTISSLEPEDFAVYYCQNGHSFPLTFGGGTKVEIKRTVAAPSVFIFPPSDEQLKSGTASVVCLLNNFYPREAKVQWKVDNALQSGNSQESVTEQDSKDSTYSLSSTLTLSKADYEKHKVYACEVTHQGLSSPVTKSFNRGEC
notes: Humanized, hIgG1/K
B4: 559E1B10_hzH3L2_hIgG1 (antibody)
heavy: not shown
light: B3 light with E1D, L4M
notes: Humanized, hIgG1/K
B5: 559E1B10_hzH2L2_hIgG1 (antibody)
heavy: not shown
light: B3 light with E1D, L4M
notes: Humanized, hIgG1/K
B6: 559E1B10_hzH3L1_hIgG1 (antibody)
heavy: not shown
light: B3 light
notes: Humanized, hIgG1/K
B7: 559E1B10_hzH0L2_hIgG1 (antibody)
heavy: not shown
light: B3 light with E1D, L4M
notes: Humanized, hIgG1/K
B8: 559E1B10_hzH0L1_hIgG1 (antibody)
heavy: not shown
light: B3 light
notes: Humanized, hIgG1/K
B9: 559E1B10_hzH1L2_hIgG1 (antibody)
heavy: not shown
light: B3 light with E1D, L4M
notes: Humanized, hIgG1/K
B10: 569D11B5_hIgG1 (antibody)
heavy: not shown
light: DIVMTQAAFSNPVTLGTSASISCRSSKSLLHSNGITYLFWYLQKPGQSPQLLIYQMSNLASGVPDRFSGSGSGTDFTLRISRVEAEDVGVYYCAQSLELPLTFGGGTKLEIKRTVAAPSVFIFPPSDEQLKSGTASVVCLLNNFYPREAKVQWKVDNALQSGNSQESVTEQDSKDSTYSLSSTLTLSKADYEKHKVYACEVTHQGLSSPVTKSFNRGEC
notes: also called hIgG1-subclass chimeric antibody 569D11B5
B11: 589D7C7_hIgG1 (antibody)
heavy: not shown
light: B10 light with G89A
notes: also called hIgG1-subclass chimeric antibody 589D7C7
B12: 563E10E12_hzH1L0_VLPLL (antibody, human IgG1, kappa)
heavy: EVQLVESGGGLVQPGGSLKLSCAASGFNFNAYAMNWVRQASGKGLEWVGRIRSKSNNFATYYADSVTDRFTISRDDSKNTAYLQMNSLKTEDTAVYYCVRHGRRDLLYSMDFWGQGTTVTVSSASTKGPSVFPLAPSSKSTSGGTAALGCLVKDYFPEPVTVSWNSGALTSGVHTFPAVLQSSGLYSLSSVVTVPSSSLGTQTYICNVNHKPSNTKVDKKVEPKSCDKTHTCPPCPAPELVGGPSVFLLPPKPKDTLMISRTPEVTCVVVDVSHEDPEVKFNWYVDGVEVHNAKTKPPEEQYNSTLRVVSVLTVLHQDWLNGKEYKCKVSNKALPAPIEKTISKAKGQPREPQVYTLPPSRDELTKNQVSLTCLVKGFYPSDIAVEWESNGQPENNYKTTPLVLDSDGSFFLYSKLTVDKSRWQQGNVFSCSVMHEALHNHYTQKSLSLSPGK
light: B10 light with A7S, A8P, F9L, N11L, L15P, T17E, S18P, R79K, L109V
B13: 563E10E12 (antibody, V domains shown)
VH: EVQLIESGGGLVQPKGSLKLSCAASGFNFNAYAMNWVRQAPGKGLEWVARIRSKSNNFATYYADSVTDRFTISRDDSESMLYLQMNNLKTEDTAMYYCVRHGRRDLLYSMDFWGQGTSVTVSS
VL: DVVMTQAAFSNPVTLGTSTSISCRSSKSLLHSNGITYLFWYLQKPGQSPQLLIYQMSNLASGVPDRFSGSGSGTDFTLRISRVEAEDVGVYYCAQSLELPLTFGGGTKLEIK
notes: Murine hybridoma antibody; also called 563E10E12 hybridoma antibody
B14: 569D11B5 (antibody, V domains shown)
VH: B13 VH with N57D, T67K, D68G, S79N, Y82F
VL: B13 VL with V2I, T19A
notes: Murine hybridoma antibody; also called 569D11B5 hybridoma antibody
B15: 589D7C7 (antibody, V domains shown)
VH: B13 VH with I5V, T67K, L81V, Q84E
VL: B13 VL with V2I, T19A, G89A
notes: Murine hybridoma antibody; also called 589D7C7 hybridoma antibody
B16: 27B9-1G3 (antibody, V domains shown)
VH: EIQLQQSGPELEKPGASVKISCKASGYSFTGYNMNWVKKSNGKSLEWIGNIDPYYGGTNYNQKFKGKATLTVDKSSSTAYMQLKSLTSEDSAVYYCARETWFITTGVIKKGFYFDYWGQGTTLTVSS
VL: EIVLTQSPTTMAASPGEKITLACSASSIISSNYLHWYQQKPGFSPKLLIYRTSSLASGVPARFSGSGSGTSYSLTIGTMEAEDVATYYCQQGSSIPRTFGGGTKLEIK
notes: Murine hybridoma antibody (supernatant or Protein A purified); also called 27B9-1G3 hybridoma antibody
B17: 559E1B10 (antibody, V domains shown)
VH: KVQLQQSGPVLVKPGASVKMSCKASGYTFTDYYVNWMKQNYGKSPEWIGVINPHNGDTRYNQKFKGKATLTVDKSSSTANMELTSLTSGDSAVYYCASWLRRGYYFDSWGQGTTLTVSS
VL: DIVMTQSPATLSVTPGDRVSLSCRASQSISDYLHWYQQKSHESPRLLLKYVSQSISGIPSRFSGSGSGSDFTLTINSVEPEDVGVYYCQNGHSFPLTFGAGTKLELK
notes: Murine hybridoma antibody; also called 559E1B10 hybridoma antibody
B18: 559E1B10_hzH3L0_hIgG1 (antibody, V domains shown)
VH: KVQLVQSGAEVKKPGASVKVSCKASGYTFTDYYVNWVRQAPGQGLEWIGVINPHNGDTRYNQKFKGKATLTVDKSTSTAYMELSSLRSEDTAVYYCASWLRRGYYFDSWGQGTTVTVSS
VL: EIVLTQSPATLSLSPGERATLSCRASQSISDYLHWYQQKPGQAPRLLIYYVSQSISGIPARFSGSGSGTDFTLTISSLEPEDFAVYYCQNGHSFPLTFGGGTKVEIKR
notes: Humanized, hIgG1/K

target: T1, human CCR8 (human, UniProt P51685 1-355); assay: cell-based or functional assay

IC50 of blockade of CCL1-induced β-arrestin recruitment (Tango-H_CCR8-CHO-K1 cells)	Binder
0.902 µg/mL	B1

target: T1, human CCR8; assay: cell-based or functional assay; remark: another data set of the same source

IC50 of blockade of CCL1-induced β-arrestin recruitment	Binder
10.2 µg/mL	B2
46.5 µg/mL	B3
71.2 µg/mL	B4
6.69 µg/mL	B5
14.8 µg/mL	B6
11.2 µg/mL	B7
118 µg/mL	B8
7.33 µg/mL	B9

target: T1, human CCR8; assay: flow cytometry on 293F-hCCR8 cells

EC50	Binder
0.0617 µg/mL	B2
0.113 µg/mL	B10
0.164 µg/mL	B11
0.0833 µg/mL	B1

target: T1, human CCR8; assay: flow cytometry, competition with 10 nM AF647-human CCL1 on 293F-hCCR8 cells

IC50	Binder
0.0549 µg/mL	B2
0.0748 µg/mL	B10
0.0526 µg/mL	B11
0.0411 µg/mL	B1

target: T1, human CCR8; assay: cell-based or functional assay; remark: another data set of the same source

EC50 of activation of Jurkat-human FcγRIIIa(158V)-NFAT with 293F-hCCR8 target cells	Binder
0.0017 µg/mL	B12

target: T2, cynomolgus CCR8 (cynomolgus monkey); assay: flow cytometry, hybridoma supernatant on CHOK1-cynoCCR8 cells
T2 construct: whole, on cells; the constructs of the cell lines are not tied to it word for word; also called cynoCCR8

MFI	Binder
16900 MFI	B13
13200 MFI	B14
15200 MFI	B15
14000 MFI	B16
21900 MFI	B17

target: T1, human CCR8; assay: flow cytometry on 293F-hCCR8 cells; remark: another data set of the same source

EC50	Binder
0.101 µg/mL	B2
0.141 µg/mL	B3
0.133 µg/mL	B4
0.204 µg/mL	B5
0.176 µg/mL	B6
0.0979 µg/mL	B7
0.135 µg/mL	B8
0.15 µg/mL	B9
0.13 µg/mL	B18

target: T1, human CCR8; assay: cell-based or functional assay; remark: another data set of the same source

EC50 of activation of Jurkat-human FcγRIIIa(158V)-NFAT with 293F-hCCR8 target cells	Binder
0.0401 µg/mL	B2
0.0292 µg/mL	B3
0.0344 µg/mL	B4
0.033 µg/mL	B5
0.028 µg/mL	B6
0.0286 µg/mL	B7
0.0305 µg/mL	B8
0.0325 µg/mL	B9
0.0985 µg/mL	B18

target: T1, human CCR8; assay: cell-based or functional assay; remark: another data set of the same source

EC50 of activation of Jurkat-human FcγRIIIa(158V)-NFAT with HuT78 target cells	Binder
0.0117 µg/mL	B12

target: T1, human CCR8; assay: flow cytometry, competition with 10 nM AF647-human CCL1 on 293F-hCCR8 cells; remark: another data set of the same source

IC50	Binder
0.125 µg/mL	B2
0.102 µg/mL	B3
0.121 µg/mL	B4
0.14 µg/mL	B5
0.088 µg/mL	B6
0.0413 µg/mL	B7
0.0438 µg/mL	B8
0.0769 µg/mL	B9
0.443 µg/mL	B18

target: T2, cynomolgus CCR8; assay: flow cytometry on 293T-cynoCCR8 cells

EC50	Binder
0.591 µg/mL	B13
0.444 µg/mL	B14
0.298 µg/mL	B15
0.146 µg/mL	B16
0.322 µg/mL	B17

target: T1, human CCR8; assay: flow cytometry, hybridoma supernatant on CHOK1-hCCR8 cells

MFI	Binder
6370 MFI	B13
5800 MFI	B14
6120 MFI	B15
2660 MFI	B16
7350 MFI	B17

target: T1, human CCR8; assay: flow cytometry, competition with 10 nM AF647-human CCL1 on 293F-hCCR8 cells; remark: another data set of the same source

IC50	Binder
0.132 µg/mL	B13
0.0882 µg/mL	B14
0.075 µg/mL	B15
0.127 µg/mL	B16
0.0785 µg/mL	B17

target: T2, cynomolgus CCR8; assay: flow cytometry on 293T-cynoCCR8 cells; remark: another data set of the same source

EC50	Binder
0.0664 µg/mL	B1

target: T1, human CCR8; assay: flow cytometry on 293F-hCCR8 cells; remark: another data set of the same source

EC50	Binder
0.195 µg/mL	B13
0.159 µg/mL	B14
0.361 µg/mL	B15
0.15 µg/mL	B16
0.107 µg/mL	B17
